Experimental data from the supplement of paper PMC9112550, “Optimization of the antimicrobial peptide Bac7 by deep mutational scanning” (BMC Biology, 2022).

Test system: Escherichia coli TOP10
Assay: shrunken log2 fold change of peptide-encoding DNA abundance (4.5 h post-induction vs induction); higher = less antimicrobial activity (less host growth inhibition)
Details: time post-induction: 4.5 h; library: site-saturation at positions 5, 18, 19, 20
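Note: peptides expressed intracellularly from a pBAD plasmid library in pooled LB shake-flask culture, induced with 0.3% L-arabinose, DNA abundance read by NGS, three biological replicates, DESeq2 with apeglm shrinkage.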

Row | Sequence | shrunken log2 fold change
1 | RRIRMRPPRLPRPRPRPLSVPRP | 0.401
2 | RRIRMRPPRLPRPRPRPLTNPRP | 0.0401
3 | RRIRMRPPRLPRPRPRPLVIPRP | -0.13
4 | RRIRMRPPRLPRPRPRPLWAPRP | 0.509
5 | RRIRMRPPRLPRPRPRPLWDPRP | 0.437
6 | RRIRMRPPRLPRPRPRPLYEPRP | 0.362
7 | RRIRMRPPRLPRPRPRPMAEPRP | 2.79
8 | RRIRMRPPRLPRPRPRPMCFPRP | 0.271
9 | RRIRMRPPRLPRPRPRPMCGPRP | 0.00224
10 | RRIRMRPPRLPRPRPRPMCRPRP | 0.0713
11 | RRIRMRPPRLPRPRPRPMGKPRP | 0.0275
12 | RRIRMRPPRLPRPRPRPMHMPRP | 0.0153
13 | RRIRMRPPRLPRPRPRPMKEPRP | -0.0707
14 | RRIRMRPPRLPRPRPRPMKMPRP | 0.803
15 | RRIRMRPPRLPRPRPRPMLGPRP | 0.141
16 | RRIRMRPPRLPRPRPRPMLKPRP | 0.197
17 | RRIRMRPPRLPRPRPRPMMNPRP | -0.0818
18 | RRIRMRPPRLPRPRPRPMMWPRP | 0.274
19 | RRIRMRPPRLPRPRPRPMPAPRP | 1.07
20 | RRIRMRPPRLPRPRPRPMQCPRP | -0.0018
21 | RRIRMRPPRLPRPRPRPMQEPRP | 0.0303
22 | RRIRMRPPRLPRPRPRPMRIPRP | 0.355
23 | RRIRMRPPRLPRPRPRPMSGPRP | 0.858
24 | RRIRMRPPRLPRPRPRPMVIPRP | -0.0665
25 | RRIRMRPPRLPRPRPRPMWQPRP | 0.188

Row | Sequence | shrunken log2 fold change
26 | RRIRMRPPRLPRPRPRPMYHPRP | -0.0178
27 | RRIRMRPPRLPRPRPRPMYNPRP | -0.815
28 | RRIRMRPPRLPRPRPRPNAYPRP | 0.311
29 | RRIRMRPPRLPRPRPRPNEAPRP | 0.326
30 | RRIRMRPPRLPRPRPRPNEGPRP | 0.137
31 | RRIRMRPPRLPRPRPRPNFMPRP | -0.0364
32 | RRIRMRPPRLPRPRPRPNFPPRP | -0.186
33 | RRIRMRPPRLPRPRPRPNFQPRP | -0.0246
34 | RRIRMRPPRLPRPRPRPNFSPRP | 0.0634
35 | RRIRMRPPRLPRPRPRPNGCPRP | 0.254
36 | RRIRMRPPRLPRPRPRPNGNPRP | 0.261
37 | RRIRMRPPRLPRPRPRPNGYPRP | 0.0495
38 | RRIRMRPPRLPRPRPRPNKNPRP | 0.152
39 | RRIRMRPPRLPRPRPRPNKQPRP | 0.0442
40 | RRIRMRPPRLPRPRPRPNLGPRP | -0.0136
41 | RRIRMRPPRLPRPRPRPNLKPRP | 0.158
42 | RRIRMRPPRLPRPRPRPNMSPRP | 0.0106
43 | RRIRMRPPRLPRPRPRPNQAPRP | -0.00973
44 | RRIRMRPPRLPRPRPRPNWHPRP | -0.0297
45 | RRIRMRPPRLPRPRPRPNYAPRP | -0.193
46 | RRIRMRPPRLPRPRPRPNYCPRP | -0.0723
47 | RRIRMRPPRLPRPRPRPNYSPRP | -0.416
48 | RRIRMRPPRLPRPRPRPPAFPRP | 0.82
49 | RRIRMRPPRLPRPRPRPPAQPRP | 1.08
50 | RRIRMRPPRLPRPRPRPPCLPRP | -0.157

Row | Sequence | shrunken log2 fold change
51 | RRIRMRPPRLPRPRPRPPCWPRP | 0.162
52 | RRIRMRPPRLPRPRPRPPDKPRP | 1.03
53 | RRIRMRPPRLPRPRPRPPDLPRP | 0.129
54 | RRIRMRPPRLPRPRPRPPFTPRP | 0.309
55 | RRIRMRPPRLPRPRPRPPKPPRP | 0.717
56 | RRIRMRPPRLPRPRPRPPLAPRP | 1.48
57 | RRIRMRPPRLPRPRPRPPMHPRP | 0.704
58 | RRIRMRPPRLPRPRPRPPMTPRP | 0.789
59 | RRIRMRPPRLPRPRPRPPNAPRP | 1.11
60 | RRIRMRPPRLPRPRPRPPNDPRP | 0.574
61 | RRIRMRPPRLPRPRPRPPNIPRP | -0.113
62 | RRIRMRPPRLPRPRPRPPNTPRP | 0.431
63 | RRIRMRPPRLPRPRPRPPPDPRP | 1.9
64 | RRIRMRPPRLPRPRPRPPPVPRP | 1.65
65 | RRIRMRPPRLPRPRPRPPPYPRP | 1.15
66 | RRIRMRPPRLPRPRPRPPQLPRP | 0.279
67 | RRIRMRPPRLPRPRPRPPSCPRP | 0.932
68 | RRIRMRPPRLPRPRPRPPSPPRP | 1.57
69 | RRIRMRPPRLPRPRPRPPTFPRP | 0.122
70 | RRIRMRPPRLPRPRPRPPTIPRP | 0.301
71 | RRIRMRPPRLPRPRPRPPTPPRP | 1.66
72 | RRIRMRPPRLPRPRPRPPYGPRP | 0.294
73 | RRIRMRPPRLPRPRPRPPYMPRP | -0.135
74 | RRIRMRPPRLPRPRPRPPYRPRP | 0.00408
75 | RRIRMRPPRLPRPRPRPPYSPRP | -0.0464

Row | Sequence | shrunken log2 fold change
76 | RRIRMRPPRLPRPRPRPQAAPRP | 0.87
77 | RRIRMRPPRLPRPRPRPQAYPRP | -0.0933
78 | RRIRMRPPRLPRPRPRPQCKPRP | -0.0461
79 | RRIRMRPPRLPRPRPRPQCMPRP | -0.0822
80 | RRIRMRPPRLPRPRPRPQECPRP | 0.313
81 | RRIRMRPPRLPRPRPRPQEGPRP | 0.0197
82 | RRIRMRPPRLPRPRPRPQENPRP | 0.48
83 | RRIRMRPPRLPRPRPRPQFHPRP | -0.237
84 | RRIRMRPPRLPRPRPRPQFKPRP | -0.138
85 | RRIRMRPPRLPRPRPRPQHDPRP | -0.202
86 | RRIRMRPPRLPRPRPRPQHWPRP | 0.155
87 | RRIRMRPPRLPRPRPRPQITPRP | -0.166
88 | RRIRMRPPRLPRPRPRPQKTPRP | -0.0249
89 | RRIRMRPPRLPRPRPRPQKWPRP | -0.00664
90 | RRIRMRPPRLPRPRPRPQLRPRP | 0.357
91 | RRIRMRPPRLPRPRPRPQLYPRP | 0.284
92 | RRIRMRPPRLPRPRPRPQMHPRP | 0.947
93 | RRIRMRPPRLPRPRPRPQNHPRP | -0.337
94 | RRIRMRPPRLPRPRPRPQQPPRP | 0.0363
95 | RRIRMRPPRLPRPRPRPQQQPRP | 0.246
96 | RRIRMRPPRLPRPRPRPQRMPRP | 0.583
97 | RRIRMRPPRLPRPRPRPQSWPRP | 0.141
98 | RRIRMRPPRLPRPRPRPQTFPRP | -0.0186
99 | RRIRMRPPRLPRPRPRPQVGPRP | 0.12
100 | RRIRMRPPRLPRPRPRPQWLPRP | 0.351

Row | Sequence | shrunken log2 fold change
101 | RRIRMRPPRLPRPRPRPQWYPRP | -0.161
102 | RRIRMRPPRLPRPRPRPQYCPRP | -0.0737
103 | RRIRMRPPRLPRPRPRPQYEPRP | -0.148
104 | RRIRMRPPRLPRPRPRPRACPRP | 0.593
105 | RRIRMRPPRLPRPRPRPRAMPRP | 1.42
106 | RRIRMRPPRLPRPRPRPRCPPRP | 0.757
107 | RRIRMRPPRLPRPRPRPRCVPRP | 0.581
108 | RRIRMRPPRLPRPRPRPRCYPRP | -0.00529
109 | RRIRMRPPRLPRPRPRPREQPRP | 0.0355
110 | RRIRMRPPRLPRPRPRPRETPRP | 1.49
111 | RRIRMRPPRLPRPRPRPRFFPRP | 0.286
112 | RRIRMRPPRLPRPRPRPRGGPRP | 1.26
113 | RRIRMRPPRLPRPRPRPRHEPRP | 0.532
114 | RRIRMRPPRLPRPRPRPRKGPRP | 0.81
115 | RRIRMRPPRLPRPRPRPRKHPRP | 0.826
116 | RRIRMRPPRLPRPRPRPRKQPRP | 0.938
117 | RRIRMRPPRLPRPRPRPRKYPRP | 0.276
118 | RRIRMRPPRLPRPRPRPRLCPRP | 1.66
119 | RRIRMRPPRLPRPRPRPRLIPRP | 0.0709
120 | RRIRMRPPRLPRPRPRPRLWPRP | 0.103
121 | RRIRMRPPRLPRPRPRPRMCPRP | 0.0537
122 | RRIRMRPPRLPRPRPRPRMDPRP | 0.356
123 | RRIRMRPPRLPRPRPRPRMSPRP | 0.353
124 | RRIRMRPPRLPRPRPRPRMYPRP | -0.0804
125 | RRIRMRPPRLPRPRPRPRPRPRP | 1.68

Row | Sequence | shrunken log2 fold change
126 | RRIRMRPPRLPRPRPRPRQYPRP | -0.0556
127 | RRIRMRPPRLPRPRPRPRVFPRP | 0.947
128 | RRIRMRPPRLPRPRPRPRWYPRP | 0.0191
129 | RRIRMRPPRLPRPRPRPSCHPRP | -0.0523
130 | RRIRMRPPRLPRPRPRPSCKPRP | 0.0347
131 | RRIRMRPPRLPRPRPRPSCLPRP | -0.0926
132 | RRIRMRPPRLPRPRPRPSCRPRP | 0.46
133 | RRIRMRPPRLPRPRPRPSDEPRP | 0.958
134 | RRIRMRPPRLPRPRPRPSEHPRP | 0.0665
135 | RRIRMRPPRLPRPRPRPSEKPRP | 0.938
136 | RRIRMRPPRLPRPRPRPSGVPRP | 0.0246
137 | RRIRMRPPRLPRPRPRPSHVPRP | -0.0609
138 | RRIRMRPPRLPRPRPRPSHYPRP | -0.201
139 | RRIRMRPPRLPRPRPRPSIPPRP | -0.316
140 | RRIRMRPPRLPRPRPRPSIQPRP | 0.0104
141 | RRIRMRPPRLPRPRPRPSKYPRP | -0.166
142 | RRIRMRPPRLPRPRPRPSLCPRP | 0.694
143 | RRIRMRPPRLPRPRPRPSLDPRP | 0.663
144 | RRIRMRPPRLPRPRPRPSLHPRP | -0.222
145 | RRIRMRPPRLPRPRPRPSLLPRP | 0.0721
146 | RRIRMRPPRLPRPRPRPSLSPRP | 0.22
147 | RRIRMRPPRLPRPRPRPSLTPRP | 0.806
148 | RRIRMRPPRLPRPRPRPSMHPRP | 0.377
149 | RRIRMRPPRLPRPRPRPSMRPRP | 0.429
150 | RRIRMRPPRLPRPRPRPSNAPRP | 0.405
